Values of other authors, collected in PMC4887106.

Molecular target: Histone H4K20me1/2 (Homo sapiens) (UniProt P62805)

MBTD1 4xMBT (from UniProt Q05BQ5)
Kd: 10 µM
